According to patent US20110064740A1:

Legend:
[1] = molecular target: Cell-surface full length amyloid precursor protein (APP) on HEK293T cells transfected with wild type APP DNA (UniProt P05067); assay: FMAT ABI8200, HEK293T cells transfected with wild type APP, mock subtracted; Experiment 1
[2] = molecular target: Cell-surface full length amyloid precursor protein (APP) on HEK293T cells transfected with wild type APP DNA (UniProt P05067); assay: FMAT ABI8200, HEK293T cells transfected with wild type APP, mock subtracted; Experiment 2

Cell-surface full length amyloid precursor protein (APP) on HEK293T cells transfected with wild type APP DNA, sequence (P05067 18-770): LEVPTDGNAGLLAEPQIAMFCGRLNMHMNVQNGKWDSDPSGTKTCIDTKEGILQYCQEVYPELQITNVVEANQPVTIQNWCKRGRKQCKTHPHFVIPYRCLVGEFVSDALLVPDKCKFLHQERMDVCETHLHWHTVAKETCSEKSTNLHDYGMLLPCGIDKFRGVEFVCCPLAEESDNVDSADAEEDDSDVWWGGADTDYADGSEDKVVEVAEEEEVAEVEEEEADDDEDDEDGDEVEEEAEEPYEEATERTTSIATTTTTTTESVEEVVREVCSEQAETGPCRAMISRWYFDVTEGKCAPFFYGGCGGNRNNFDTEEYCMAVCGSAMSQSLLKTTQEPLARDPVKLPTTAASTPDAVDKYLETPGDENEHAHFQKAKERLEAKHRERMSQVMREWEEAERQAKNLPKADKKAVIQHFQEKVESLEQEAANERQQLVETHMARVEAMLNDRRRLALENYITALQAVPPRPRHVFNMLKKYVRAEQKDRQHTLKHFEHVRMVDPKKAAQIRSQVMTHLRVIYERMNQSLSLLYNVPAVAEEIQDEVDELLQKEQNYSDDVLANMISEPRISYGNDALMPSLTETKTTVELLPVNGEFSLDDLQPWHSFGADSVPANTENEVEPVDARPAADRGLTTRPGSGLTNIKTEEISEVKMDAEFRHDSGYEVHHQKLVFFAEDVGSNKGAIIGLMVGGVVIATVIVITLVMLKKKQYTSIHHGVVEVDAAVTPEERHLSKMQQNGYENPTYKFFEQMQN

Substance “Antibody G210 which recognises the x-40 form of the β-amyloid peptide” has a % of LN27 binding [1] of 5.5% and a % of LN27 binding [2] of 2%.
In the case of “LN27 (Zymed) mouse IgG to extracellular domain of APP (antibody)”, the % of LN27 binding [1] is reported as 100% and the % of LN27 binding [2] is reported as 100%.
